According to the supplement of paper PMC9170038:

System: MS2 coat protein
Experiment: apparent KD of MS2 coat protein; designed switch direction (-1 OFF switch, 1 ON switch): -1; higher = weaker reporter binding
In short: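 Stalled E. coli RNA polymerase transcribed designed RNA switches on Illumina chips, which were then titrated with SNAP-549-labelled MS2 coat protein, doubling from 0.7 or 1.5 nM to 3 µM. Steps lasted from 0.8–1.5 h at the lowest concentration to 10–20 min at the highest. The apparent KD is each design's median over clusters of curve-fitted normalised fluorescence.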

[1] = input ligand: microRNA oligo, concentration not stated
[2] = Eterna round: R95, input ligand: microRNA oligo, concentration not stated
[3] = Eterna round: R95, input ligand: FMN 200 uM
[4] = Eterna round: R95, input ligand: none

Sequence | apparent KD of MS2 coat protein (input ligand: FMN 200 uM) [nM] | apparent KD of MS2 coat protein (input ligand: none) [nM] | apparent KD of MS2 coat protein [1] [nM] | apparent KD of MS2 coat protein [2] [nM] | apparent KD of MS2 coat protein [3] [nM] | apparent KD of MS2 coat protein [4] [nM]
AGUUGGCAAGGAUAUACAUGAGGAUCACCCAUGUGAAAUUAUAGUGAGGAAAUGAAAAGUAGAAGGUGCUGACA [Mod of Mat 3 - Jieux - Exclusion 3] (Eterna round: R97, puzzle: Exclusion 3) | 114 | 30.9 | – | – | – | –
CAGUACUGAGGAUAUACAUGAGGAUCACCCAUGUGUGUGAGAAUUGUGUGGUUGUUUUGUAGAAGGCGGUGCUG [JR_Ex3_Sub032] (Eterna round: R97, puzzle: Exclusion 3) | 326 | 346 | – | – | – | –
GUCACUAGAGGAUAUACAAUGGUAUAUGAUCCUAGAGACAUACAUGAGGAUCACCCAUGUAGAAGGCUAGUAUU [Exclusion 2 - 5] (Eterna round: R96, puzzle: Exclusion 2) | 52.9 | 52.5 | 53.1 | – | – | –
UGAUCAGACCGAGGAUAUACAUGUAGGACGCACGUGAGUGCGUCCAAUACAUGAGGAUCACCCAUGUAGAAGGCGGUCUGAUCU [JL ENG2 1.94] (Eterna round: R96, puzzle: Exclusion NG 2) | 181 | 86.7 | 76.4 | – | – | –
GUGUACAGAGGAUAUACUCAUGGAGUUACGAAAGUAACUUCACAUGAGGAUCACCCAUGUAGAAGGCUGUACAC [Dot plot directed v9] (puzzle: Exclusion 2) | – | – | – | 341 | – | –
GUCUGCACGCUGCGGUCCUACAUGAGGAUCACCCAUGUGGUCUGGUGGCGUGGGUCACCGGACUUGGCUCGUCUUGC [salish99_S_TOV1_R5_052] (Eterna round: R97, puzzle: Sensor, turn-off variant 1) | 19.1 | 18.9 | – | – | – | –
AAGAAACAUGAGGAUCACCCAUGUGAGGAUAUGACCCGCCCGGCGUAAGCAAAAUAAAUCAGAAGGCACAAAGG [salish99_ex1_r4_007] (Eterna round: R97, puzzle: Exclusion 1) | 35.5 | 37.3 | – | – | – | –
AAAAAGGUAGGAUAUACGAAAAAAAAGGGUAGAAAAAAAACACAUGAGGAUCACCCAUGUAGAAGGACCAAAAU [salish99_ex2_r3_044] (puzzle: Exclusion 2) | – | – | – | 35.3 | 82.8 | 36.6
UUUUUUUUGCGAGGAUAUGCAUUUAGUUAGUUAGCAGAAGGCGCGUUUCUAUACUCCUCUUCGUACAUGAGGAUCACCCAUGUU [JR_ExcNG1_Sub032] (Eterna round: R96, puzzle: Exclusion NG 1) | 74.9 | 44.8 | 35.7 | – | – | –
UUUAAACAUGAGGAUCACCCAUGUUAGGAUAUACGCAUGCAGACACACACGGAUGCAAGUAGAAGGAACCAUGC [Design #7] (Eterna round: R97, puzzle: Exclusion 1) | 23.6 | 22.9 | – | – | – | –
AAAAUGUGAGGAUAUCAGGUGUGCUAGAGAACUGGUACAUCUGAGAAGGCACAUGAGGAUCACCCAUGUUCUUC [Mat - Exclusion 4 - Mod of JL - D57] (puzzle: Exclusion 4) | – | – | – | 30.9 | – | –
AACAAACAUGAGGAUCACCCAUGUCAGGAUAUGCACAAACAAACAAACAAACAAGCAAGCAGAAGGGACACAAC [Amethyst 89] (Eterna round: R96, puzzle: Exclusion 1) | 34.7 | 24.8 | 22.4 | – | – | –
GGUUGACAUGAGGAUCACCCAUGUGAGGAUAUGCGAGAGAAAAAAGUGAGGAAGUUUUGCAGAAGGCGCUGUCG [salish99-ex1_r3_007] (puzzle: Exclusion 1) | – | – | – | 87.5 | 43.5 | 56
AGCUGUGGCCGAGGAUAUGACAUGAGGAUCACCCAUGUACAAGAUUAGGCCUGGUAACAGGCUCAUCAGAAGGCGGUCUCAGCA [Eli eng2 - 015] (Eterna round: R96, puzzle: Exclusion NG 2) | 10 | 13.9 | 9.52 | – | – | –
GGUGUGCCAGUCAGGAUAUGAUCCACGCCCGUAGGUCAGAAGGGACUUGAGGAUCACCCAAGUUGCAAGAAAGA [Gesoxedi] (Eterna round: R97, puzzle: Brourd's mod of Exclusion 4) | 100 | 97.3 | – | – | – | –
GUAAAACAUGAGGAUCACCCAUGUCAGGAUAUACGAAUCCACCCUAACUGCGUGGAUCGUAGAAGGGACAUAGG [Exclusion 1 (MOD5.1 Esqu)] (Eterna round: R97, puzzle: Exclusion 1) | 17.9 | 44.7 | – | – | – | –
GCCACAGCAGGAUAUUCAAUAAUUCACAUGAGGAUCACCCAUGUCGAGCGAAAGCUCGAGGGAGAAGGGCUGUGGC [Mat - Exclusion 5 - Eli mod - D88] (puzzle: Exclusion 5) | – | – | – | 34.4 | – | –
UACAUGAGGAUCACCCAUGUUUUGUCGUGUAUGGUAUUUAUCUAGGAUAUCAAUUGAUUUAUGUAUGAGAAGGAGAAUAUUAAU [JMF's solution 63] (Eterna round: R96, puzzle: Exclusion NG 3) | 41.1 | 34.8 | 34.9 | – | – | –
AUAAUGUAAGGAUAUCAGUCGACUAGCCUCGGCUAGUCGACUGAGAAGGUACAUGAGGAUCACCCAUGUAGAUC [E4/19-A2] (Eterna round: R97, puzzle: Exclusion 4) | 352 | 47.8 | – | – | – | –
GGUGCGUAUGUGAGGAUAUGCUGGUCCUUGGAUCUGCAGAAGGCACAUGAGGAUCACCCAUGUGGUGUCGUACC [salish99_Bmod_Ex4_024] (puzzle: Brourd's mod of Exclusion 4) | – | – | – | 276 | – | –
GGUGUACAUGAGGAUCACCCAUGUUAGGAUAUAUCCAAACGCCUAGAGGAGAGGCACGAUAGAAGGAACGUGUA [Eternabot (Original) Solution 33] (Eterna round: R97, puzzle: Exclusion 1) | 37.2 | 41 | – | – | – | –
UUAAUGUGAGGAUAUCAGGUGUGCUAGCGUACUGGUACAUCUGAGAAGGCACAUGAGGAUCACCCAUGUUCUUC [JL-ex4-3.30 Brourd mod] (puzzle: Exclusion 4) | – | – | – | 32.5 | – | –
AAGAACUGAGGAUAUGCAAAAGGGAAAGCUGAUCCUCAUCUACAUGAGGAUCACCCAUGUAGAAGGCGGGAAAU [Aveerve] (Eterna round: R96, puzzle: Exclusion 2) | 108 | 74 | 50.7 | – | – | –
ACAAGCAGAGGUGUGCGACACAUGAGGAUCACCCAUGUCGUCUGCCUCUGUGCAGAGGCUUUUUGCUCGUACUUAUU [Sensor V1 S3] (Eterna round: R97, puzzle: Sensor, turn-off variant 1) | 20.1 | 19.3 | – | – | – | –
GGACCGAUAGGAUAUGUCGUUGCAUACAUGAGGAUCACCCAUGUGAACCCUUGGUGAACUGCAGAAGGAUUGCGCA [Eternabot (L1) Solution 41] (Eterna round: R97, puzzle: Exclusion 5) | 240 | 221 | – | – | – | –
UCAGAGCGAGGAUAUGCUGGUGUUAUUCACAUUUGUCCGCGACAUGAGGAUCACCCAUGUAGAAGGCGUAGCCA [Eternabot (L2) Solution 44] (Eterna round: R97, puzzle: Exclusion 2) | 104 | 76.9 | – | – | – | –
